Measured values taken from patent publication US20200055939A1 (Genentech, published 2020).

Key:
[1] = biological target: T1, MICA*008 on MEL-JUSO cells (human, UniProt Q29983 24-317); experiment: cell-based or functional assay
T1 chain: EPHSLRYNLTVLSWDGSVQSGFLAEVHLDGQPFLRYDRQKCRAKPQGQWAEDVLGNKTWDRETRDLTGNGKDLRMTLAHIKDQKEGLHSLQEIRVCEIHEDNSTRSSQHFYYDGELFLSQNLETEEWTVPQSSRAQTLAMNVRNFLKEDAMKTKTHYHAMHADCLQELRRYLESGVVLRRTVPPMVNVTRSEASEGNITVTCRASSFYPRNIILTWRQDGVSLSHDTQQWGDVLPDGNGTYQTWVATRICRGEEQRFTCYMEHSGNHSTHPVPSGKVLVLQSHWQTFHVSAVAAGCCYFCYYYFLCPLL

[2] = biological target: MICA*004 on HCC1534 cells (human, UniProt Q29983 24-383); experiment: cell-based or functional assay
[3] = biological target: MICB*005 on HCC1534 cells (human); experiment: cell-based or functional assay
huMICA*002 alpha 3-his = biological target: T2, huMICA*002 alpha 3-his (human); experiment: SPR, Biacore 8K, antibody on Protein A chip
T2 construct: whole construct entry: GS, alpha 3 domain, GNS, His8; also called MICA002.His; MICA*002 alpha3 construct
T2 chain: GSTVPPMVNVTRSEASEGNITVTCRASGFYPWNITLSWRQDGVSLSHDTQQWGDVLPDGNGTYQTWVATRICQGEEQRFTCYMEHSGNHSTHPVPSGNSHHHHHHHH
Procedure: (§1) A Protein A sensorchip (GE Healthcare) was used following manufacturer provided protocols to capture humanized anti-MICA/B antibodies. The MICA/B alleles were passed over. Antibody binding was measured to human MICA 002, 004, 008 and MICB 005 alpha 3 domains (His tagged, in-house). Sensograms for binding of MICA/B were recorded using an injection time of 2 minutes with a flow rate of 30 ml/min, at a temperature of 25° C., and with a running buffer of 10 mM HEPES, pH 7.4, 150 mM NaCl, 3mM EDTA, and 0.005% Tween 20. After injection, disassociation of the alpha 3 domain from the antibody was monitored for 10 minutes in running buffer. The surface was regenerated between binding cycles with a 60 ul injection of 10 mM Glycine HCl pH 1.5. […] The data was analyzed using a 1:1 binding model. Sensograms of MICA alleles binding to captured anti-MICA antibody were used to calculate the dissociation constant (Kd).

huMICA*004 alpha 3-his = biological target: T3, huMICA*004 alpha 3-his (human); experiment: SPR, Biacore 8K, antibody on Protein A chip
T3 construct: whole construct entry: GS, alpha 3 domain, GNS, His8; also called MICA004.His; MICA*004 alpha3 construct
T3 chain: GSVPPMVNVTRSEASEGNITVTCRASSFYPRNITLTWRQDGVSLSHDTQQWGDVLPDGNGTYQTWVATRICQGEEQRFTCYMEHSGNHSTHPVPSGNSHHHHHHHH
Procedure: as §1

huMICA*008 alpha 3-his = biological target: T4, huMICA*008 alpha 3-his (human); experiment: SPR, Biacore 8K, antibody on Protein A chip
T4 construct: whole construct entry: GS, alpha 3 domain (Thr204-Ser297), GNS, His8; also the construct of the FPOP experiment; also called MICA008.His; MICA*008 alpha3 construct
T4 chain: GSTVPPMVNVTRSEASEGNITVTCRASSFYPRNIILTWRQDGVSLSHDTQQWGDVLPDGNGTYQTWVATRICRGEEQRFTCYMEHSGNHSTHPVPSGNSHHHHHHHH
Procedure: as §1

huMICB*005 alpha 3-his = biological target: T5, huMICB*005 alpha 3-his (human); experiment: SPR, Biacore 8K, antibody on Protein A chip
T5 construct: whole construct entry: GS, alpha 3 domain, GNS, His8; also called MICB005.His; MICB*005 alpha3 construct
T5 chain: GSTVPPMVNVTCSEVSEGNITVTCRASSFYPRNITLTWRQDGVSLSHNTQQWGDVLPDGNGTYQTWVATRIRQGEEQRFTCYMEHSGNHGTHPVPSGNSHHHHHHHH
Procedure: as §1
Throughout, for % Inhibition: test concentration or dose not given here.

| Binder | % Inhibition [1] | % Inhibition [2] | % Inhibition [3] | Kd (huMICA*002 alpha 3-his) | Kd (huMICA*004 alpha 3-his) | Kd (huMICA*008 alpha 3-his) | Kd (huMICB*005 alpha 3-his) |
| --- | --- | --- | --- | --- | --- | --- | --- |
| 1D5v23 (antibody, IgG1, V domains shown, humanized variant of 1D5) VH: EIQLVQSGAEVKKPGASVKVSCKASGYAFTSQNIYWVRQAPGQGLEWIGYIEPYNVVPMYNPKFKGRATLTVDTSTSTAYLELSSLRSEDTAVYYCARSGSSNFDYWGQGTLVTVSS VL: DIQLTQSPSSLSASVGDRVTITCSASSSISSHYLHWYQQKPGKSPKLLIYRTSNLASGVPSRFSGSGSGTDYTLTISSLQPEDFATYYCQQGSSLPLTFGQGTKVEIK | 63% | 50% | 38% | 1.11 nM | 0.9 nM | 0.58 nM | 1.65 nM |
| 1D5v28 (antibody, IgG1, V domains shown, humanized variant of 1D5) VH: EIQLVQSGAEVKKPGASVKVSCKASGYAFTSQNIYWVRQAPGQGLEWIGYIEPYNVVPLYNPKFKGRATLTVDKSTSTAYLELSSLRSEDTAVYYCARSGSSNFDYWGQGTLVTVSS VL: DIQLTQSPSSLSASVGDRVTITCSASSSISSHYLHWYQQKPGKSPKLLIYRTSNLASGVPSRFSGSGSGTDYTLTISSLQPEDFATYYCQQGSSLPLTFGQGTKVEIK | 0% | 3% | 36% | 1.19 nM | 0.87 nM | 0.84 nM | 1.49 nM |
| 1D5v24 (antibody, IgG1, V domains shown, humanized variant of 1D5) VH: EVQLVQSGAEVKKPGASVKVSCKASGYAFTSQNIYWVRQAPGQGLEWIGYIEPYNVVPMYNPKFKGRVTITVDKSTSTAYLELSSLRSEDTAVYYCARSGSSNFDYWGQGTLVTVSS VL: DIQLTQSPSSLSASVGDRVTITCSASSSISSHYLHWYQQKPGKSPKLLIYRTSNLASGVPSRFSGSGSGTDYTLTISSLQPEDFATYYCQQGSSLPLTFGQGTKVEIK | 65% | 50% | 43% | 1.21 nM | 0.9 nM | 1.41 nM | 1.62 nM |
| 1D5v25 (antibody, IgG1, V domains shown, humanized variant of 1D5) VH: EVQLVQSGAEVKKPGASVKVSCKASGYAFTSQNIYWVRQAPGQGLEWIGYIEPYNVVPMYNPKFKGRVTITVDTSTSTAYLELSSLRSEDTAVYYCARSGSSNFDYWGQGTLVTVSS VL: DIQLTQSPSSLSASVGDRVTITCSASSSISSHYLHWYQQKPGKSPKLLIYRTSNLASGVPSRFSGSGSGTDYTLTISSLQPEDFATYYCQQGSSLPLTFGQGTKVEIK | 62% | 46% | 28% | 1.22 nM | 0.96 nM | 0.93 nM | 1.84 nM |
| 1D5v27 (antibody, IgG1, V domains shown, humanized variant of 1D5) VH: EIQLVQSGAEVKKPGASVKVSCKASGYAFTSQNIYWVRQAPGQGLEWIGYIEPYNVVPAYNPKFKGRATLTVDKSTSTAYLELSSLRSEDTAVYYCARSGSSNFDYWGQGTLVTVSS VL: DIQLTQSPSSLSASVGDRVTITCSASSSISSHYLHWYQQKPGKSPKLLIYRTSNLASGVPSRFSGSGSGTDYTLTISSLQPEDFATYYCQQGSSLPLTFGQGTKVEIK | 69% | 53% | -8% | 1.85 nM | 1.52 nM | 1.44 nM | 3.31 nM |
| 1D5v29 (antibody, IgG1, V domains shown, humanized variant of 1D5) VH: EIQLVQSGAEVKKPGASVKVSCKASGYAFTSQNIYWVRQAPGQGLEWIGYIEPYNVVPVYNPKFKGRATLTVDKSTSTAYLELSSLRSEDTAVYYCARSGSSNFDYWGQGTLVTVSS VL: DIQLTQSPSSLSASVGDRVTITCSASSSISSHYLHWYQQKPGKSPKLLIYRTSNLASGVPSRFSGSGSGTDYTLTISSLQPEDFATYYCQQGSSLPLTFGQGTKVEIK | 57% | 40% | -8% | 2.01 nM | 1.58 nM | 1.65 nM | 3.86 nM |
| 1D5v26 (antibody, IgG1, V domains shown, humanized variant of 1D5) VH: EVQLVQSGAEVKKPGASVKVSCKASGYAFTSQNIYWVRQAPGQGLEWIGYIEPYNVVPMYNPKFKGRVTITRDKSTSTAYLELSSLRSEDTAVYYCARSGSSNFDYWGQGTLVTVSS VL: DIQLTQSPSSLSASVGDRVTITCSASSSISSHYLHWYQQKPGKSPKLLIYRTSNLASGVPSRFSGSGSGTDYTLTISSLQPEDFATYYCQQGSSLPLTFGQGTKVEIK | 50% | 37% | 42% | 3.9 nM | 3.17 nM | 3.12 nM | 7.15 nM |
| 13A9v2 (antibody, IgG1, V domains shown, humanized variant of 13A9) VH: EVQLVQSGAEVKKPGASVKVSCKASGYAFTNYLIEWVRQAPGQGLEWIGAINPGSGATNYNEKFKDRATLTADKSTNTAYLELSSLRSEDTAVYFCARFLGNYFDNWGQGTLVTVSS VL: DIQMTQSPSSLSASVGDRVTITCRASGNIHSYLAWYQQKPGKAPKLLIYYAETLADGVPSRFSGSGSGTDFTLTISSLQPEDFATYYCQQFWTTPYTFGQGTKVEIK | 12% | 10% | 60% | 4.44 nM | 5.32 nM | 2.56 nM | 3.15 nM |
| 13A9v6 (antibody, IgG1, V domains shown, humanized variant of 13A9) VH: EVQLVQSGAEVKKPGSSVKVSCKASGYAFTNYLIEWVRQAPGQGLEWIGAINPGSGATNYNEKFKDRATLTADKSTNTAYMELSSLRSEDTAVYFCARFLGNYFDNWGQGTLVTVSS VL: DIQMTQSPSSLSASVGDRVTITCRASGNIHSYLAWYQQKPGKSPKLLVYYAETLADGVPSRFSGSGSGTDYTLTISSLQPEDFATYFCQQFWTTPYTFGQGTKVEIK | 8% | 16% | 6% | 3.94 nM | 3.77 nM | 2.8 nM | 2.45 nM |
| 13A9v1 (antibody, IgG1, V domains shown, humanized variant of 13A9) VH: EVQLVQSGAEVKKPGASVKVSCKASGYAFTNYLIEWVRQAPGQGLEWIGAINPGSGATNYNEKFKDRVTITADTSTSTAYLELSSLRSEDTAVYYCARFLGNYFDNWGQGTLVTVSS VL: DIQMTQSPSSLSASVGDRVTITCRASGNIHSYLAWYQQKPGKAPKLLIYYAETLADGVPSRFSGSGSGTDFTLTISSLQPEDFATYYCQQFWTTPYTFGQGTKVEIK | 10% | 12% | 43% | 5.87 nM | 8.37 nM | 5.6 nM | 5.12 nM |
| 13A9v4 (antibody, IgG1, V domains shown, humanized variant of 13A9) VH: EVQLVQSGAEVKKPGASVKVSCKASGYAFTNYLIEWVRQAPGQGLEWIGAINPGSGATNYNEKFKDRATLTADKSTNTAYLELSSLRSEDTAVYFCARFLGNYFDNWGQGTLVTVSS VL: DIQMTQSPSSLSASVGDRVTITCRASGNIHSYLAWYQQKPGKSPKLLVYYAETLADGVPSRFSGSGSGTDYTLTISSLQPEDFATYFCQQFWTTPYTFGQGTKVEIK | -31% | -29% | 63% | 3.93 nM | 3.69 nM | 2.72 nM | 2.4 nM |
| 13A9v3 (antibody, IgG1, V domains shown, humanized variant of 13A9) VH: EVQLVQSGAEVKKPGASVKVSCKASGYAFTNYLIEWVRQAPGQGLEWIGAINPGSGATNYNEKFKDRVTITADTSTSTAYLELSSLRSEDTAVYYCARFLGNYFDNWGQGTLVTVSS VL: DIQMTQSPSSLSASVGDRVTITCRASGNIHSYLAWYQQKPGKSPKLLVYYAETLADGVPSRFSGSGSGTDYTLTISSLQPEDFATYFCQQFWTTPYTFGQGTKVEIK | 2% | 25% | 42% | 4.97 nM | 4.79 nM | 3.85 nM | 3.15 nM |
| 13A9v5 (antibody, IgG1, V domains shown, humanized variant of 13A9) VH: EVQLVQSGAEVKKPGSSVKVSCKASGYAFTNYLIEWVRQAPGQGLEWIGAINPGSGATNYNEKFKDRATLTADKSTNTAYMELSSLRSEDTAVYFCARFLGNYFDNWGQGTLVTVSS VL: DIQMTQSPSSLSASVGDRVTITCRASGNIHSYLAWYQQKPGKAPKLLIYYAETLADGVPSRFSGSGSGTDFTLTISSLQPEDFATYYCQQFWTTPYTFGQGTKVEIK | 4% | 9% | 63% | 4.27 nM | 5.52 nM | 3.68 nM | 3.17 nM |
